Reference: the supplement of paper PMC10126150
± gives the standard deviation of the averaged measurements.

Test system: ATP
Experiment: switch fluorescence ratio, 500 uM ATP over buffer (Cy3 cluster intensity, sum of 5 cycles each) (fold (ratio)); higher = stronger signal-on switching upon ATP binding; sequences stand for … in TCGTCGGCAGCGTCAGATGTGTATAAGAGACAGTTTTTTTTTTTTTTTTTTTTTTTTT…TC
Conditions: aptamer strand: ATP DNA aptamer (quencher-CACCTGGGGGAGTATTGCGGAGGAAGG + anchor), 100 nM annealed; ATP concentration: 500 uM
Procedure, shortened: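 Values give the fluorescence ratio for each switch-domain sequence, averaged from per-cluster ratios of summed target-cycle to summed buffer-cycle Cy3 intensity. The Cy3-labelled switching-strand clusters sat on a modified Illumina MiSeq flow-cell, were annealed to 100 nM quencher-labelled ATP aptamer, and were imaged in selection buffer, then after 15 min with 500 uM ATP at 22 °C. Five cycles ran with NaOH stripping and re-annealing between them, and clusters outside 100-1000 RFU were excluded.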
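Also: ATP exposure 15 min at 22 °C before imaging.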

TTTGTGCCTC
switch fluorescence ratio: 0.9528 ± 0.0093

AAGGAAGACA
switch fluorescence ratio: 0.995 ± 0.03

TTGCGGAGGG
switch fluorescence ratio: 1.01 ± 0.069

CATTAAAGAT
switch fluorescence ratio: 1.01 ± 0.077

TGCTGGGGGG
switch fluorescence ratio: 0.981 ± 0.023

AGGTGTTGT
switch fluorescence ratio: 1.03 ± 0.053

TCACGCTGTG
switch fluorescence ratio: 1.01 ± 0.036

GGGTTTGGGG
switch fluorescence ratio: 0.988 ± 0.022

TCGTGGGGTG
switch fluorescence ratio: 0.999 ± 0.042

TTGAGTGGTT
switch fluorescence ratio: 1.01 ± 0.092

CAAGCTTTTT
switch fluorescence ratio: 0.979 ± 0.032

ATCTCGCGCA
switch fluorescence ratio: 1.36 ± 0.11

TTTGGGCTGG
switch fluorescence ratio: 1.01 ± 0.06

TGTCGCTCGT
switch fluorescence ratio: 0.992 ± 0.043

GGTGTTACGT
switch fluorescence ratio: 0.971 ± 0.017

ATAAGACTGG
switch fluorescence ratio: 0.9819 ± 0.0053

AATCTGGGGG
switch fluorescence ratio: 1.01 ± 0.018

ATAAAAAGTT
switch fluorescence ratio: 0.984 ± 0.034

TTAATTCTAC
switch fluorescence ratio: 1.039 ± 0.0063

GGGGGCTTAT
switch fluorescence ratio: 1.01 ± 0.017

GTCAGAATGT
switch fluorescence ratio: 1.02 ± 0.017

ATAGGGGA
switch fluorescence ratio: 0.989 ± 0.018

AGCTGAACGG
switch fluorescence ratio: 1.05 ± 0.025

TATGGGTGGG
switch fluorescence ratio: 0.964 ± 0.018

GGATGCAGGA
switch fluorescence ratio: 1.04 ± 0.042

TGATCATCTA
switch fluorescence ratio: 0.993 ± 0.024

AGAGGGAACA
switch fluorescence ratio: 1.01 ± 0.02

CGGCAATGTT
switch fluorescence ratio: 1.73 ± 0.14

ATATCCTAGT
switch fluorescence ratio: 0.987 ± 0.029

GTGGGATTAG
switch fluorescence ratio: 1 ± 0.028

TATGAGTAAT
switch fluorescence ratio: 0.9866 ± 0.0093

CGAAAGCAGG
switch fluorescence ratio: 1.1681 ± 0.00099

GTGTAAGAAC
switch fluorescence ratio: 1.016 ± 0.0048

AGGCGGTAGC
switch fluorescence ratio: 1.02 ± 0.0037

CGGGAGAACT
switch fluorescence ratio: 0.987 ± 0.026

TGGATATAGT
switch fluorescence ratio: 0.9937 ± 0.0038

CTGCGTCGGA
switch fluorescence ratio: 1.01 ± 0.032

GTTTTTGATA
switch fluorescence ratio: 0.998 ± 0.02

TTTTGTTAGT
switch fluorescence ratio: 0.997 ± 0.022

GGATATAAAT
switch fluorescence ratio: 0.972 ± 0.0099

ATTTGGCGTG
switch fluorescence ratio: 1.01 ± 0.099

ATGGGCACGT
switch fluorescence ratio: 0.983 ± 0.019

TATGGAGGGT
switch fluorescence ratio: 1.01 ± 0.022

TCTTTTGGGT
switch fluorescence ratio: 0.9777 ± 0.0063

ATTTTGGTTG
switch fluorescence ratio: 1.01 ± 0.035

TACGGGAGCC
switch fluorescence ratio: 1.01 ± 0.025

ATGGCGGCGT
switch fluorescence ratio: 0.959 ± 0.035

GGCCTAGGGA
switch fluorescence ratio: 1.01 ± 0.056

CCGCAGAGCA
switch fluorescence ratio: 1.79 ± 0.043

GCCGCCCTGG
switch fluorescence ratio: 1.056 ± 0.0076

TAGAAATGAT
switch fluorescence ratio: 0.987 ± 0.033

ACACAGGCTA
switch fluorescence ratio: 1.027 ± 0.005

GAGGGGAAAA
switch fluorescence ratio: 0.99 ± 0.04

GGTCGGTGCG
switch fluorescence ratio: 0.9914 ± 0.0098

AGGGGGTACA
switch fluorescence ratio: 1.01 ± 0.016

ACCGGGGTGT
switch fluorescence ratio: 1.17 ± 0.14

GGATACTGCA
switch fluorescence ratio: 1.043 ± 0.0054

CGTTATGGGA
switch fluorescence ratio: 0.976 ± 0.022

ATGATGAGTT
switch fluorescence ratio: 0.986 ± 0.01

AACTTTAGTC
switch fluorescence ratio: 0.994 ± 0.04

GTCATTGCGG
switch fluorescence ratio: 0.994 ± 0.015

AGCTTTAAAA
switch fluorescence ratio: 0.981 ± 0.025

AACATGGTGC
switch fluorescence ratio: 1.01 ± 0.011

GCCTTTTGCG
switch fluorescence ratio: 1.01 ± 0.018

CAGCTGGAGC
switch fluorescence ratio: 1 ± 0.017

TAATTGGGTC
switch fluorescence ratio: 1.024 ± 0.0024

AGGAAGTCTT
switch fluorescence ratio: 0.941 ± 0.021

GTGGTAGTTC
switch fluorescence ratio: 0.983 ± 0.015

AGCTTATTGC
switch fluorescence ratio: 0.977 ± 0.015

TATGAATTTG
switch fluorescence ratio: 1 ± 0.028

TTTAATGTTG
switch fluorescence ratio: 1.014 ± 0.0082

AGAGACCAGC
switch fluorescence ratio: 1.07 ± 0.028

AATTGACGTA
switch fluorescence ratio: 1.021 ± 0.0069

TTGAGATTGA
switch fluorescence ratio: 1.01 ± 0.02

TCAGTTCTTC
switch fluorescence ratio: 0.989 ± 0.011

TAGGGGGGTG
switch fluorescence ratio: 1.02 ± 0.025

GCACACGGGG
switch fluorescence ratio: 1.01 ± 0.07

GGGGTGGTTA
switch fluorescence ratio: 0.9948 ± 0.005

AAAATAAGAG
switch fluorescence ratio: 1.009 ± 0.0037

GGTTAGGGAG
switch fluorescence ratio: 1.002 ± 0.0089

TTGCCGGGCA
switch fluorescence ratio: 0.987 ± 0.032

AAGATTGGGT
switch fluorescence ratio: 1 ± 0.049

ACGGGTCGGA
switch fluorescence ratio: 1 ± 0.027

ACGAATGCGT
switch fluorescence ratio: 0.975 ± 0.047

TCGTTTCATA
switch fluorescence ratio: 0.9784 ± 0.0036

CCAGGCGCGG
switch fluorescence ratio: 1.05 ± 0.055

ATTAAACGAG
switch fluorescence ratio: 1.01 ± 0.031

TAGTTGAACA
switch fluorescence ratio: 1.01 ± 0.021

TTTTTACTCC
switch fluorescence ratio: 1.48 ± 0.53

GATACGCGGG
switch fluorescence ratio: 0.9947 ± 0.0057

TTTTTTGCGG
switch fluorescence ratio: 1.08 ± 0.22

TTTGGTCTCA
switch fluorescence ratio: 1 ± 0.02

AATGTAAGTT
switch fluorescence ratio: 0.975 ± 0.025

GTAATAAGCG
switch fluorescence ratio: 1.007 ± 0.00016

AATAGGGCTT
switch fluorescence ratio: 0.978 ± 0.04

AATGTAGTTT
switch fluorescence ratio: 0.993 ± 0.032

GAGGTGTAGG
switch fluorescence ratio: 1.01 ± 0.02

TATTAATTCT
switch fluorescence ratio: 0.972 ± 0.036

CCAATTCAAG
switch fluorescence ratio: 0.9977 ± 0.0073

GGGTTAGTGG
switch fluorescence ratio: 0.976 ± 0.032

AAGAAGAAAT
switch fluorescence ratio: 1.04 ± 0.066

TACCGGGTCT
switch fluorescence ratio: 1.032 ± 0.005

GGCCGGGGTA
switch fluorescence ratio: 1 ± 0.046

GGGTTGCTTA
switch fluorescence ratio: 0.99 ± 0.023

TACGGGGACA
switch fluorescence ratio: 1.07 ± 0.055

GCGTTTAGTA
switch fluorescence ratio: 0.992 ± 0.03

AGGTGCAGGC
switch fluorescence ratio: 0.863 ± 0.082

TTGTCCAAAT
switch fluorescence ratio: 0.986 ± 0.0099

GGTTGTTAGG
switch fluorescence ratio: 0.9796 ± 0.0055

TTTCGAGGAT
switch fluorescence ratio: 1.006 ± 0.0044

GGGGCGGGA
switch fluorescence ratio: 1.08 ± 0.016

ATTGAGATCG
switch fluorescence ratio: 1.01 ± 0.033

CTTCGGGTAC
switch fluorescence ratio: 3.69 ± 0.79

AGAGTGGTAG
switch fluorescence ratio: 0.99 ± 0.013

TTGGGGAATG
switch fluorescence ratio: 0.999 ± 0.049

TATGGAAAGG
switch fluorescence ratio: 0.994 ± 0.016

TCTGTTTGTT
switch fluorescence ratio: 1.015 ± 0.01

TCTTCACTAC
switch fluorescence ratio: 1.25 ± 0.06

AGGGCAAAAG
switch fluorescence ratio: 1.03 ± 0.006

AGGGCGGGGC
switch fluorescence ratio: 0.944 ± 0.061

ATGTTGGTTG
switch fluorescence ratio: 1.03 ± 0.04

TCAATTTAGA
switch fluorescence ratio: 1.03 ± 0.038

GAGTTACGGG
switch fluorescence ratio: 1.01 ± 0.072

CTGGGATGGG
switch fluorescence ratio: 1.06 ± 0.13

TTTCCATATT
switch fluorescence ratio: 0.984 ± 0.019

CATCTTAGCT
switch fluorescence ratio: 1.035 ± 0.0054

AGGAGGGAAC
switch fluorescence ratio: 0.9916 ± 0.0016

GGGATCAGTA
switch fluorescence ratio: 0.9602 ± 0.0055

ACGTTTGTAT
switch fluorescence ratio: 1 ± 0.031

ATTAGTTAGC
switch fluorescence ratio: 1.01 ± 0.05

CTGTGTTGTG
switch fluorescence ratio: 0.998 ± 0.015

TGTGGGGGTC
switch fluorescence ratio: 0.965 ± 0.042

ATTACACTGC
switch fluorescence ratio: 1.01 ± 0.066

TTGCTAAAAG
switch fluorescence ratio: 1.02 ± 0.028

AGTTAGTCTG
switch fluorescence ratio: 1.01 ± 0.04

CGGTGTGTCT
switch fluorescence ratio: 1.02 ± 0.019

CCTAGCATGG
switch fluorescence ratio: 2.05 ± 0.21

GGTACAAGG
switch fluorescence ratio: 1.01 ± 0.029

CGAAATTACG
switch fluorescence ratio: 1.04 ± 0.021

CTTATCTTTT
switch fluorescence ratio: 0.986 ± 0.0097

TTATATGGGG
switch fluorescence ratio: 1 ± 0.018

GGGGGTTGCA
switch fluorescence ratio: 0.965 ± 0.016

GGGAGAACGA
switch fluorescence ratio: 0.984 ± 0.015

CGTGGATGTG
switch fluorescence ratio: 0.9885 ± 0.0027

AACAATTGGG
switch fluorescence ratio: 0.978 ± 0.0039

CTATGACGTT
switch fluorescence ratio: 0.998 ± 0.019

GGGTTAGGTC
switch fluorescence ratio: 1.02 ± 0.013

GATAGGCGTG
switch fluorescence ratio: 1.01 ± 0.029

GAAAGGGGGA
switch fluorescence ratio: 1.02 ± 0.025

TGTTTTACTG
switch fluorescence ratio: 0.996 ± 0.015

GGAGGGAGCG
switch fluorescence ratio: 1 ± 0.03

TAGGAGGTTC
switch fluorescence ratio: 0.988 ± 0.021

GATCCCGCGG
switch fluorescence ratio: 1.049 ± 0.0088

ATTAAATAGC
switch fluorescence ratio: 1.03 ± 0.043

ACGTTTGGGG
switch fluorescence ratio: 0.968 ± 0.049

TTTTTTGAAG
switch fluorescence ratio: 0.997 ± 0.03

GTGTGATCCG
switch fluorescence ratio: 1.01 ± 0.049

GCCTAATAGT
switch fluorescence ratio: 0.98 ± 0.027

GTAATACTTG
switch fluorescence ratio: 1.079 ± 0.01

GAGTTGAAAA
switch fluorescence ratio: 0.9868 ± 0.001

ATAAGTGATA
switch fluorescence ratio: 1.02 ± 0.025

GCCGTCTCCC
switch fluorescence ratio: 1.03 ± 0.047

TGTGTTTTCT
switch fluorescence ratio: 0.9862 ± 0.003

GGGGGTTAGA
switch fluorescence ratio: 1 ± 0.035

CGGATTTGAC
switch fluorescence ratio: 1.015 ± 0.0028

GGAGAGTGCT
switch fluorescence ratio: 0.985 ± 0.015

AAGATCATCT
switch fluorescence ratio: 1.01 ± 0.023

ATATATTGAG
switch fluorescence ratio: 0.995 ± 0.019

ATTGGGTTTT
switch fluorescence ratio: 0.999 ± 0.022

TTCTTCTCAA
switch fluorescence ratio: 1.15 ± 0.065

TGGGGTTTAT
switch fluorescence ratio: 1.01 ± 0.02

CCTATGGCGG
switch fluorescence ratio: 1.07 ± 0.017

CGCGGTAGTC
switch fluorescence ratio: 1.1 ± 0.046

TGCACTGTTT
switch fluorescence ratio: 1.01 ± 0.038

GGATGGGCAA
switch fluorescence ratio: 1.026 ± 0.0026

TATTGACCGT
switch fluorescence ratio: 1.04 ± 0.029

ATTCATATTG
switch fluorescence ratio: 1.01 ± 0.042

GAGAATCGGA
switch fluorescence ratio: 0.965 ± 0.012

TATATCAATC
switch fluorescence ratio: 0.991 ± 0.013

TGTAGTGTTT
switch fluorescence ratio: 1.03 ± 0.044

GAGCTTCTCT
switch fluorescence ratio: 1.0194 ± 9.9e-05

AGGGTTAAGG
switch fluorescence ratio: 1.017 ± 0.0078

TTAAGACGTC
switch fluorescence ratio: 1.01 ± 0.0011

TGAATGATTG
switch fluorescence ratio: 0.995 ± 0.013

GGGAGTTGGG
switch fluorescence ratio: 1.02 ± 0.044

TGTGCCAGGG
switch fluorescence ratio: 1.06 ± 0.024

CTGTATTCGC
switch fluorescence ratio: 1.172 ± 0.0037

TGATGGCCTG
switch fluorescence ratio: 0.986 ± 0.067

TTTATTATTG
switch fluorescence ratio: 0.989 ± 0.035

TTGGGGGCGG
switch fluorescence ratio: 1.01 ± 0.015

CACAGCTCAC
switch fluorescence ratio: 1.79 ± 0.065

GCTCGTAAGT
switch fluorescence ratio: 1.01 ± 0.0049

GACATGGACG
switch fluorescence ratio: 1.088 ± 0.0062

GGGGGTACGT
switch fluorescence ratio: 0.989 ± 0.03

GGGTTTGTAC
switch fluorescence ratio: 1.13 ± 0.12

TTTTTTTGC
switch fluorescence ratio: 1 ± 0.02

GCATGAGGTG
switch fluorescence ratio: 1.08 ± 0.021

CCATTCCCAT
switch fluorescence ratio: 1.26 ± 0.28

TCAGTAGGGG
switch fluorescence ratio: 0.978 ± 0.068

CAGTGGGGCT
switch fluorescence ratio: 1.016 ± 0.0057
